Assay results as given in US20110124556 (published 2011).
Non-standard residues stand in square brackets, D forms with d. No end group written: not given here. *: point of attachment. Biotin = O=C1N[C@H]2[C@H](CS[C@H]2CCCCC(=O)*)N1; Bpa = N[C@@H](Cc1ccc(C(=O)c2ccccc2)cc1)C(=O)O; Tic = O=C(O)[C@@H]1Cc2ccccc2CN1; Ac6c = NC1(C(=O)O)CCCCC1

Molecular target: T1, human insulin receptor (HIR) (human, UniProt P06213)
Test: competition

Row | IC50 [nM] | Binder
1 | 700 | FHENFYDWFVQRVSKK [H2C (D117)]

Molecular target: T1, human insulin receptor (HIR)
Test: competition
Remark: another data set of the same source

Row | Kd [nM] | Binder
2 | 0.7 | 539 (D8-6aa-RP9) (protein) MADYKDDDDKWLDQEWAWVQCEVYGRGCPSGGSGGSGSLDESFYDWFERQLGKKAAAGAPVPYPDPLEPRPG
3 | ~100 | MADYKDDDDKWLDQEWAWVQCEVYGRGCPSAAAGAPVPYPDPLEPRPG [RB540 (D8)]
4 | 60 | RB517 (protein) DYKDDDDKHLCVLEELFWGASLFGYCSGGGSGGSHLCVLEELFWGASLFGYCSGAAAGAPVPYPDPLEPRAA

Molecular target: sIR-Fc (human, UniProt P06213)
Test: competition, TR-FRET vs b-RP9

Row | IC50 [nM] | Binder
5 | 184 | S414 (not fully specified; listing feature) chain 1: ESFYDWFERQLGKX chain 2: ESFYDWFERQLGKX

Molecular target: T1, human insulin receptor (HIR)
Test: competition
Remark: another data set of the same source

Row | Binder | Kd [nM]
6 | S252 (listing feature) chain 1: SDGFYNAIELLSX chain 2: SDGFYNAIELLSX | 440
7 | HDPFYSMMKSLLK [S120] | 20
8 | RGTRSDPFYHKLSELLQGH [S368] | > 20000
9 | FHENFYDWAVRQVSKK [S223] | > 2000
10 | GIISQSCPESFYDWFAGQVSDPWWCW [S326 (G33)] | 590
11 | IQGWEPFYGWFDDVVAQMFEE [S264] | 190
12 | ANFYDWFVAELG [S242] | 20000
13 | S246 (not fully specified; listing feature) chain 1: ACAWPTYWNCGGGGX chain 2: FHENFYDWFVRQVSKKX | 50
14 | QLEEEWAGVQCEVYGRECPS [S226] | 16000
15 | S233 (listing feature) chain 1: FHENFYDWFVRQVSKKX chain 2: SDGFYNAIELLSX | 260
16 | S255 (listing feature) chain 1: SDGFYNAIELLSGGGX chain 2: SDGFYNAIELLSGGGX | 16
17 | TGHRLGLDEQFYWWFRDALSG [S265] | 110
18 | HPTSKEIYAKLLK [S122] | 93
19 | HETFYSMIRSLAK [S117] | 27
20 | PLRESRNFYDWFVQQLE [S366] | 370
21 | S231 (listing feature) chain 1: FHENFYDWFVRQVSKKGGGX chain 2: FHENFYDWFVRQVSKKGGGX | 270
22 | GRVDWLQRNANFYDWFV [S251] | 56000
23 | SGSLDESFYDWFERQLGKK [S372] | 200
24 | S218 (listing feature) chain 1: AFYDWFAKKX chain 2: AFYDWFAKKX | 11000
25 | PLCFLQELFGGASLGGYCSG [S262] | 19000
26 | S217 (peptide) chain 1: SDGFYNAIELLS chain 2: SDGFYNAIELLS | 3900

Other lines, results leading:

Row | Kd [nM] | Binder
27 | 0.0064 | SLEEEWAQIECEVYGRGCPSESFYDWFERQLG [S554]
28 | 2.6 | LAQEWAWVQCEVYGRGCPSESFYDWFERQL [S495]
29 | 26 | S546 (not fully specified (bridges); cysteine pairing not given here; also: chains 1 and 2 form one continuous chain) chain 1: SLEEEWAQVECEV chain 2: [Bpa]GRGCPSGSLDESFYDWFERQ[Bpa]GK(Biotin)
30 | 0.008 | SLEEEWAQVECEVYGRGCPSESFYDWFERQL [S530]
31 | 40 | GSLDESFYDWFERQLGXK (listing feature) [S550]
32 | 0.062 | SLEEEWAQVECEVYGRGCPSGGSGGSGLLDESFYHWFDRQLR [S510]
33 | 0.037 | SLEEEWAWVECEVYGRGCPSGSLDESFYDWFERQL [S532]
34 | 46 | S439 (peptide) chain 1: ESFYDWFERQLGGGGK chain 2: QEWAWVQCEVYGRGCPS
35 | 1.3 | HHHHHHKLDQEWAWVQCEVYGRGCPSESFYDWFERQLG [S481]
36 | 99 | S440 (peptide) chain 1: ESFYDWFERQLGGGGK chain 2: EWAWVQCEVYGRGCPS
37 | 5.7 | LDQEWAWVQSEVYGRGSPSESFYDWFERQL [S509]
38 | 0.014 | S563 (cysteine pairing not given here) chain 1: SLEEEWAQIQCEVWG chain 2: R[dN][dC]SESFYDWFERQL
39 | 0.006 | SIEEEWAQIKCDVWGRGCPSESFYDWFERQL [S517]
40 | 0.018 | SLEEEWAQIECEVWGRGCSGSLDESFYDWFERQL [S561]
41 | 0.038 | SLEQEWAQVECEVYGRGCPSGSLDESFYDWFERQLG [S538]
42 | 0.013 | SLEEEWAQVKCEVYGRGCPSGSLDESFYDWFERQLG [S540]
43 | 2.4 | S527 (not fully specified; printed as H-Acy-CAQEwGSEL-Tic-QCSGSESFYDWFERQL; ends and bridges not checked) chain 1: H[Ac6c]CAQE[dW]GSEL chain 2: [Tic]QCSGSESFYDWFERQL

Molecular target: T1, human insulin receptor (HIR)
Test: competition
Remark: another data set of the same source

Row | Kd [nM] | Binder
44 | 100 | S415 (listing feature) chain 1: ESFYDWFERQLGKX chain 2: ESFYDWFERQLGKX

Molecular target: T1, human insulin receptor (HIR)
Test: competition
Remark: another data set of the same source

Row | Kd [nM] | Binder
45 | 180 | S374 (not fully specified; listing feature) chain 1: XGSLDESFYDWFERQLGKK chain 2: XGSLDESFYDWFERQLGKK
46 | 830 | GSLDESFYDWFERQLGKK [S371 (RP9)]

Molecular target: sIR (human, UniProt P06213)
Test: FP

Row | IC50 [nM] | Binder
47 | 0.2 | S414 (not fully specified; listing feature) chain 1: ESFYDWFERQLGKX chain 2: ESFYDWFERQLGKX
